In patent US20260209316A1 (US Dept. of Health and Human Services, published 2026):

B1: antibody 405S (antibody, V domains shown)
VH: EVQLVESGGGLIQPGGSLRLSCAASGFTVSSHYMSWVRQAPGKGLEWVSGIYSGGRTHYADSVKGRFTISRDNSKNTLYLQMNSLRADDTAVYSCARGTLLYLYGMDVWGQGTTVTVSS
VL: QSVLTQPPSVSAAPGQRVTISCTGSSSNIGAGYNVHWYQQLPGAAPKLLIYGNTNRPSGVPDRFSGSKSGTSASLAITGLQAEDEADYYCQSFDSSLSGVFGTGTKVTVL
B2: antibody 365S (antibody, V domains shown)
VH: EVQLVESGGGLVQPGGSLRLSCAASGLTFSAYEMNWVRQAPGKGLEWVSHITTSGSAIYYADSVKGRFTISRDNAKNSLHLQMNRLRADDTAVYFCARDSTIVQCSGTSCHVSTYSYMDVWGKGTTVTVSS
VL: EIVLTQSPATLSLSPGERATLSCRASQSVTTYLAWYQHKPGQAPRLLIYDASKRATGIPARFSGSGSGTDFTLTISSLEPEDFAVYHCQQRSSWPPITFGQGTRLEIK
B3: antibody 382S (antibody, V domains shown)
VH: QVQLVQSGAEVKKPGSSVKVSCKASGGTFSNYGISWVRQAPGQGLEWMGRNIPIIGIANYAQKFQDRVTITADKSTSTVFMELRSLRYEDTAVYYCARDPLAARRGNWFDPWGQGTLVTVSS
VL: DIQMTQSPSTLSASVGDRVTITCRASQSVSSWLAWYQQKPGKAPKLLIYDASTLQSGVPSRFSGSGSGTEFTLTISSLQPDDFATYYCQQYNSYSYTFGQGTKLEIK
B4: antibody 285S (antibody, V domains shown)
VH: QVQLVQSGAEVKKPGSSVKVSCKASGGTFSTYAITWVRQAPGQGLEWMGRIIPILRVANYAQKFQGRVTITADSSTSTAYMELSSLRSEDTAVYYCANLLAYCGGDCRSDYWGQGTLVTVSS
VL: EIVLTQSPGTLSLSPGERATLSCRASQSVKNSYLAWYHQKPGQAPRLLIYGASSRATGIPDRFSGSGSGTDFTLTISRLEPEDFAVYYCQQYGSSLWTFGQGTKVDVK
B5: antibody 335S (antibody, V domains shown)
VH: EVQLVESGGGVVQPGRSLRLSCAASGFSFSNYAMHWVRQAPGKGLEWVAVTWYDGSSKYHADSVKGRFTISRDNSKNTLYLQMNSLRAEDTAVYYCARWGMGIVASPGNVLNYYYFMDVWGQGTTVIVSS
VL: SYELTQPPSVSVSPGQTARITCSGNPLPKKHTYWYQQKPGQAPVLMIYKDSERPSRIPERFSGSSSGTTVTLTISGVQAEDEADYYCQSADSTGIVVFGGGTKLTVL
B6: antibody 102S (antibody, V domains shown)
VH: EVQLVESGGGLVQPGGSLRLSCSASGFTFHSYDMNWARQAPGKGLEWVSEISSSGQSKNYADSVRGRFTISRDNAKNSLYLQINSLRSEDTAVYYCARVGFVAKFGSDFSITHGTYYLDYWGQGTLVTVSS
VL: QLVLTQSPATLSLSPGERATLSCRASQSVSNYLAWYQQKPGQAPRLLIYDASNRAPGVPARFSGSGSGTDFSLTISSLEPEDFAVYYCLQRSNWPPWTFGQGTKVEIK

What follows are binders tested against T1, mucin domain-deleted Sudan GP (GPdMuc) (Sudan virus (SUDV), UniProt Q7T9D9 33-632) (assay: BLI competition on Sudan GPdMuc (lower table); competitor 16F6).
T1 construct: also called Sudan GPdMuc; GP(S)dMuc

Binder | % inhibition of binding
B1 | 10.1%
B2 | 12%
B3 | 13.6%
B4 | 3.29%
B5 | 8.17%
B6 | 19.4%

The binders below were run against T1, mucin domain-deleted Sudan GP (GPdMuc) (assay: BLI competition on Sudan GPdMuc (lower table); competitor 15H10).

Binder | % inhibition of binding
B1 | 11.1%
B2 | 9.47%
B3 | 17.6%
B4 | 7.47%
B5 | 8.78%
B6 | 11.9%

These binders were tested against T1, mucin domain-deleted Sudan GP (GPdMuc) (assay: ELISA on coated GP).

Binder | EC50
B1 | 0.04 µg/mL
B2 | 0.06 µg/mL
B3 | 0.26 µg/mL
B4 | 0.02 µg/mL
B5 | 0.02 µg/mL
B6 | 0.09 µg/mL

What follows are binders tested against T1, mucin domain-deleted Sudan GP (GPdMuc) (assay: BLI competition on Sudan GPdMuc (lower table); competitor 316L).

Binder | % inhibition of binding
B1 | 7.24%
B2 | 5.16%
B3 | 10.7%
B4 | -6.78%
B5 | 1.49%
B6 | 10.3%

What follows are binders tested against T1, mucin domain-deleted Sudan GP (GPdMuc) (assay: BLI competition on Sudan GPdMuc (lower table); competitor mAb166).

Binder | % inhibition of binding
B1 | 84.1%
B2 | 84.2%
B3 | 84.9%
B4 | 64.6%
B5 | 80%
B6 | 78.2%
